We go through two molecules from publication doi:10.1101/2022.07.11.499617, “Direct attenuation of Arabidopsis ERECTA signaling by a pair of U-box E3 ligases” (bioRxiv, 2022).

The target of test [1] is T1, GST-PUB31 (Arabidopsis thaliana, UniProt Q9FHN9 1-444).
T1 chain: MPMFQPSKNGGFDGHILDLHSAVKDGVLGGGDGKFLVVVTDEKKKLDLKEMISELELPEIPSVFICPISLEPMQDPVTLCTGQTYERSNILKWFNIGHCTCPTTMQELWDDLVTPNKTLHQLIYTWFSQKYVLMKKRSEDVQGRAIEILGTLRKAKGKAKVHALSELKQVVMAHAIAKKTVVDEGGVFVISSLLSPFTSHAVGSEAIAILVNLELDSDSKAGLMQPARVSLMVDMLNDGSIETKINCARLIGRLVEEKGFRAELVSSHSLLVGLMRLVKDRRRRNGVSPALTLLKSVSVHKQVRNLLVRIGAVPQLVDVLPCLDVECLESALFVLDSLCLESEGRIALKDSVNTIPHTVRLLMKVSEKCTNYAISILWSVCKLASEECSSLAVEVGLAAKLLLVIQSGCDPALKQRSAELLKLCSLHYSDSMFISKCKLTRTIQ
The experiment in a line: BLI. On the technique in general: In BLI a coated tip is dipped into the sample, and binding shifts an interference pattern.

Test [2] has as its target T2, GST-PUB30 (Arabidopsis thaliana, UniProt Q058P4 1-448).
T2 chain: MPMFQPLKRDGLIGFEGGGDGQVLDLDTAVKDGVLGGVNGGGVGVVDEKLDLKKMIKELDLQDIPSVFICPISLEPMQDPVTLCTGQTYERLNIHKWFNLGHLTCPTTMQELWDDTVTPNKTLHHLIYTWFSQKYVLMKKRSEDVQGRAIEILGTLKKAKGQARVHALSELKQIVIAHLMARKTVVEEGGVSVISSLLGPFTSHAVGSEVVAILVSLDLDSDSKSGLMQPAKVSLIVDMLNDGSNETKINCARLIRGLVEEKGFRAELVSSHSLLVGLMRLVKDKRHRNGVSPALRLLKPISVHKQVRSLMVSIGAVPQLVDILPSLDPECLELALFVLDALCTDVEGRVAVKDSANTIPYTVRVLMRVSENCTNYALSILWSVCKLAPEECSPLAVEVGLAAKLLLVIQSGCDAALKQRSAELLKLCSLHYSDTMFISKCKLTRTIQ
The experiment in a line: BLI.

In test [3] the target is T3, GST-PUB31 (Arabidopsis thaliana, UniProt Q9FHN9 1-444).
T3 construct: Plant U-box ubiquitin E3 ligase PUB31, Arabidopsis, full length
T3 sequence (looked up): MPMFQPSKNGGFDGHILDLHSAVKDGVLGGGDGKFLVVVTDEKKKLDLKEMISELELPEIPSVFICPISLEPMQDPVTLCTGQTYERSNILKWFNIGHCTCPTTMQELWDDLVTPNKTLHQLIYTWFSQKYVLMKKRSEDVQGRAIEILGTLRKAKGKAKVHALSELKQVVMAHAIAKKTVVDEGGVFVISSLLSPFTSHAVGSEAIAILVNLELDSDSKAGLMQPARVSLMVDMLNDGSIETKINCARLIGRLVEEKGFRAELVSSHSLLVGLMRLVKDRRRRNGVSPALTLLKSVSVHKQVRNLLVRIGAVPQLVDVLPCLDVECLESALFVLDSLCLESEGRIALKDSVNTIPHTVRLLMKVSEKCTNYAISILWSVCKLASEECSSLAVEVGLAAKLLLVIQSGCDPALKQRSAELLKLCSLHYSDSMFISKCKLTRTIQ
Description: BLI; Octet Red96; GST-PUB30 or GST-PUB31 loaded on anti-GST probes (2000 nM for ERECTA_CD, 1000 nM for BAK1_CD); ERECTA_CD or BAK1_CD as analyte at seven concentrations; 30 °C; 1x PBS with 0.02 % Tween 20; 1:1 model, steady-state analysis. Particulars: both partners purified.

Test [4] concerns the target T4, GST-PUB30 (Arabidopsis thaliana, UniProt Q058P4 1-448).
T4 construct: Plant U-box ubiquitin E3 ligase PUB30, Arabidopsis, full length
T4 sequence (looked up): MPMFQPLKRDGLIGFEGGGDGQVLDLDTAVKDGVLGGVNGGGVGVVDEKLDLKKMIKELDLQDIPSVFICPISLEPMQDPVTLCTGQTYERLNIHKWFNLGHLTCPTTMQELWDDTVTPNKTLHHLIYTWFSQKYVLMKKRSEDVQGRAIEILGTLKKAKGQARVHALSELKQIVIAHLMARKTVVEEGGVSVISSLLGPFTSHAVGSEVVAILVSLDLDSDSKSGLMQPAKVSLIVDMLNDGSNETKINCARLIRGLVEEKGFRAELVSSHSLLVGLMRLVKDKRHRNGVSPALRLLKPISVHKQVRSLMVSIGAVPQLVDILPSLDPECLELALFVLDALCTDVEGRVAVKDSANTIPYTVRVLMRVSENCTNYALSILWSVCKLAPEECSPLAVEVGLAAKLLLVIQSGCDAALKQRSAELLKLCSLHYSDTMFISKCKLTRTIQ
Described as above. Conditions: both partners purified.

Test [5] has as its target T1, GST-PUB31. The experiment in a line: BLI.
Test [6] addresses T2, GST-PUB30. The experiment in a line: BLI.

Read-outs that look alike come from different tables or passages of the source.

B1: MBP-BAK1_CD (domain or fragment, Arabidopsis thaliana, UniProt Q94F62 247-615, looked up)
chain: AWWRRKKPQDHFFDVPAEEDPEVHLGQLKRFSLRELQVASDNFSNKNILGRGGFGKVYKGRLADGTLVAVKRLKEERTQGGELQFQTEVEMISMAVHRNLLRLRGFCMTPTERLLVYPYMANGSVASCLRERPESQPPLDWPKRQRIALGSARGLAYLHDHCDPKIIHRDVKAANILLDEEFEAVVGDFGLAKLMDYKDTHVTTAVRGTIGHIAPEYLSTGKSSEKTDVFGYGVMLLELITGQRAFDLARLANDDDVMLLDWVKGLLKEKKLEALVDVDLQGNYKDEEVEQLIQVALLCTQSSPMERPKMSEVVRMLEGDGLAERWEEWQKEEMFRQDFNYPTHHPAVSGWIIGDSTSQIENEYPSGPR
notes: BRI1-ASSOCIATED RECEPTOR KINASE1 (BAK1/SERK3), Arabidopsis; cytoplasmic domain
For the molecule B1, the results for the Kd with GST-PUB31 [1] and with GST-PUB30 [2] were 2 µM and 2.4 µM, respectively. The “fold stronger interaction than ERECTA_CD” value with GST-PUB31 [3] and in the test with GST-PUB30 [4] was about 10 fold each time.

B2: MBP-ERECTA_CD (domain or fragment)
chain: CRPHNPPPFLDGSLDKPVTYSTPKLVILHMNMALHVYEDIMRMTENLSEKYIIGHGASSTVYKCVLKNCKPVAIKRLYSHNPQSMKQFETELEMLSSIKHRNLVSLQAYSLSHLGSLLFYDYLENGSLWDLLHGPTKKKTLDWDTRLKIAYGAAQGLAYLHHDCSPRIIHRDVKSSNILLDKDLEARLTDFGIAKSLCVSKSHTSTYVMGTIGYIDPEYARTSRLTEKSDVYSYGIVLLELLTRRKAVDDESNLHHLIMSKTGNNEVMEMADPDITSTCKDLGVVKKVFQLALLCTKRQPNDRPTMHQVTRVLGSFMLSEQPPAATDTSATLAGSCYVDEYANLKTPHSVNCSSMSASDAQLFLRFGQVISQNSE
In the case of B2, the Kd with GST-PUB31 [5] amounted to 11 µM; with GST-PUB30 [6] it was 15 µM.

The term Kd denotes the free concentration of one partner at which half of the binding sites on the other are occupied at equilibrium, for simple one-to-one binding. Low values mean higher affinity, high ones lower affinity.
